What was measured:
HeLa Kyoto [1] = assay: solubility in G1/S (NP-40 vs SDS abundance) (log2 ratio); higher = more soluble; details: cell cycle stage: G1/S
HeLa Kyoto [2] = assay: thermal stability score vs G1/S (z-score of summed log2 fold changes over temperatures); higher = more thermally stable than in G1/S
HeLa Kyoto [3] = assay: solubility change mitosis vs G1/S (difference of NP-40 vs SDS log2 ratios) (log2 ratio difference); higher = more soluble in mitosis
HeLa Kyoto [4] = assay: melting temperature (median over replicates), in situ; higher = more thermally stable
[5] = cell cycle stage: early G1 (4.5 h after nocodazole release)
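Wherever melting temperature (median over replicates), in situ is given: HeLa Kyoto cells synchronized by double thymidine or nocodazole block, proteins quantified by TMT10plex mass spectrometry, three independent biological replicates.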
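Wherever solubility change mitosis vs G1/S (difference of NP-40 vs SDS log2 ratios) is given: synchronized HeLa Kyoto cells (double thymidine block for G1/S, nocodazole release for mitosis), protein amounts in NP-40 versus SDS lysates quantified by mass spectrometry, three biological replicates.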
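Wherever solubility in G1/S (NP-40 vs SDS abundance) is given: HeLa Kyoto cells arrested at G1/S by double thymidine block, proteins quantified by TMT10plex mass spectrometry in mild NP-40 versus SDS extracts, three biological replicates.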
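Wherever thermal stability score vs G1/S (z-score of summed log2 fold changes over temperatures) is given: synchronized HeLa Kyoto cells, proteins quantified by TMT10plex mass spectrometry, three biological replicates, mitosis taken 0.5 h after nocodazole release, G1/S directly after double thymidine block.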

Row | Sequence | solubility in G1/S (log2) (HeLa Kyoto [1]) | thermal stability score (HeLa Kyoto [2]; [5]) | thermal stability score (HeLa Kyoto [2]; cell cycle stage: mitosis) | solubility change mitosis (log2) (HeLa Kyoto [3]) | melting temperature (HeLa Kyoto [4]; cell cycle stage: mitosis) [°C] | melting temperature (HeLa Kyoto [4]; cell cycle stage: G1/S) [°C]
1 | MNIMNTEQSQNSIVSRIKVFEGQTNIETSGLPKKPEITPRSLPPKPTVSSGKPSVAPKPAANRASGEWDSGTENRLKVTSKEGLTPYPPLQEAGSIPVTKPELPKKPNPGLIRSVNPEIPGRGPLAESSDSGKKVPTPAPRPLLLKKSVSSENPTYPSAPLKPVTVPPRLAGASQAKAYKSLGEGPPANPPVPVLQSKPLVDIDLISFDDDVLPTPSGNLAEESVGSEMVLDPFQLPAKTEPIKERAVQPAPTRKPTVIRIPAKPGKCLHEDPQSPPPLPAEKPIGNTFSTVSGKLSNVERTRNLESNHPGQTGGFVRVPPRLPPRPVNGKTIPTQQPPTKVPPERPPPPKLSATRRSNKKLPFNRSSSDMDLQKKQSNLATGLSKAKSQVFKNQDPVLPPRPKPGHPLYSKYMLSVPHGIANEDIVSQNPGELSCKRGDVLVMLKQTENNYLECQKGEDTGRVHLSQMKIITPLDEHLRSRPNDPSHAQKPVDSGAPHAVVLHDFPAEQVDDLNLTSGEIVYLLEKIDTDWYRGNCRNQIGIFPANYVKVIIDIPEGGNGKRECVSSHCVKGSRCVARFEYIGEQKDELSFSEGEIIILKEYVNEEWARGEVRGRTGIFPLNFVEPVEDYPTSGANVLSTKVPLKTKKEDSGSNSQVNSLPAEWCEALHSFTAETSDDLSFKRGDRIQILERLDSDWCRGRLQDREGIFPAVFVRPCPAEAKSMLAIVPKGRKAKALYDFRGENEDELSFKAGDIITELESVDDDWMSGELMGKSGIFPKNYIQFLQIS [SH3D19] | 0.173 | 0.0615 | -0.175 | -0.127 | 49 | –
2 | MNNQKQQKPTLSGQRFKTRKRDEKERFDPTQFQDCIIQGLTETGTDLEAVAKFLDASGAKLDYRRYAETLFDILVAGGMLAPGGTLADDMMRTDVCVFAAQEDLETMQAFAQVFNKLIRRYKYLEKGFEDEVKKLLLFLKGFSESERNKLAMLTGVLLANGTLNASILNSLYNENLVKEGVSAAFAVKLFKSWINEKDINAVAASLRKVSMDNRLMELFPANKQSVEHFTKYFTEAGLKELSEYVRNQQTIGARKELQKELQEQMSRGDPFKDIILYVKEEMKKNNIPEPVVIGIVWSSVMSTVEWNKKEELVAEQAIKHLKQYSPLLAAFTTQGQSELTLLLKIQEYCYDNIHFMKAFQKIVVLFYKAEVLSEEPILKWYKDAHVAKGKSVFLEQMKKFVEWLKNAEEESESEAEEGD [BZW1] | 0.625 | 2.93 | 6.17 | -0.105 | 48.8 | 49.3
3 | MNNSGADEIGKLFVGGLDWSTTQETLRSYFSQYGEVVDCVIMKDKTTNQSRGFGFVKFKDPNCVGTVLASRPHTLDGRNIDPKPCTPRGMQPERTRPKEGWQKGPRSDNSKSNKIFVGGIPHNCGETELREYFKKFGVVTEVVMIYDAEKQRPRGFGFITFEDEQSVDQAVNMHFHDIMGKKVEVKRAEPRDSKSQAPGQPGASQWGSRVVPNAANGWAGQPPPTWQQGYGPQGMWVPAGQAIGGYGPPPAGRGAPPPPPPFTSYIVSTPPGGFPPPQGFPQGYGAPPQFSFGYGPPPPPPDQFAPPGVPPPPATPGAAPLAFPPPPSQAAPDMSKPPTAQPDFPYGQYAGYGQDLSGFGQGFSDPSQQPPSYGGPSVPGSGGPPAGGSGFGRGQNHNVQGFHPYRR [DAZAP1] | 0.412 | -1.35 | -1.24 | -0.0921 | 53.7 | 53.6
4 | MNNSLENTISFEEYIRVKARSVPQHRMKEFLDSLASKGPEALQEFQQTATTTMVYQQGGNCIYTDSTEVAGSLLELACPVTTSVQPQTQQEQQIQVQQPQQVQVQVQVQQSPQQVSAQLSPQLTVHQPTEQPIQVQVQIQGQAPQSAAPSIQTPSLQSPSPSQLQAAQIQVQHVQAAQQIQAAEIPEEHIPHQQIQAQLVAGQSLAGGQQIQIQTVGALSPPPSQQGSPREGERRVGTASVLQPVKKRKVDMPITVSYAISGQPVATVLAIPQGQQQSYVSLRPDLLTVDSAHLYSATGTITSPTGETWTIPVYSAQPRGDPQQQSITHIAIPQEAYNAVHVSGSPTALAAVKLEDDKEKMVGTTSVVKNSHEEVVQTLANSLFPAQFMNGNIHIPVAVQAVAGTYQNTAQTVHIWDPQQQPQQQTPQEQTPPPQQQQQQLQVTCSAQTVQVAEVEPQSQPQPSPELLLPNSLKPEEGLEVWKNWAQTKNAELEKDAQNRLAPIGRRQLLRFQEDLISSAVAELNYGLCLMTREARNGEGEPYDPDVLYYIFLCIQKYLFENGRVDDIFSDLYYVRFTEWLHEVLKDVQPRVTPLGYVLPSHVTEEMLWECKQLGAHSPSTLLTTLMFFNTKYFLLKTVDQHMKLAFSKVLRQTKKNPSNPKDKSTSIRYLKALGIHQTGQKVTDDMYAEQTENPENPLRCPIKLYDFYLFKCPQSVKGRNDTFYLTPEPVVAPNSPIWYSVQPISREQMGQMLTRILVIREIQEAIAVANASTMH [QRICH1] | 0.184 | 3.16 | 5.23 | -0.197 | 49.3 | 47
5 | MNPEKDFAPLTPNIVRALNDKLYEKRKVAALEIEKLVREFVAQNNTVQIKHVIQTLSQEFALSQHPHSRKGGLIGLAACSIALGKDSGLYLKELIEPVLTCFNDADSRLRYYACEALYNIVKVARGAVLPHFNVLFDGLSKLAADPDPNVKSGSELLDRLLKDIVTESNKFDLVSFIPLLRERIYSNNQYARQFIISWILVLESVPDINLLDYLPEILDGLFQILGDNGKEIRKMCEVVLGEFLKEIKKNPSSVKFAEMANILVIHCQTTDDLIQLTAMCWMREFIQLAGRVMLPYSSGILTAVLPCLAYDDRKKSIKEVANVCNQSLMKLVTPEDDELDELRPGQRQAEPTPDDALPKQEGTASGGPDGSCDSSFSSGISVFTAASTERAPVTLHLDGIVQVLNCHLSDTAIGMMTRIAVLKWLYHLYIKTPRKMFRHTDSLFPILLQTLSDESDEVILKDLEVLAEIASSPAGQTDDPGPLDGPDLQASHSELQVPTPGRAGLLNTSGTKGLECSPSTPTMNSYFYKFMINLLKRFSSERKLLEVRGPFIIRQLCLLLNAENIFHSMADILLREEDLKFASTMVHALNTILLTSTELFQLRNQLKDLKTLESQNLFCCLYRSWCHNPVTTVSLCFLTQNYRHAYDLIQKFGDLEVTVDFLAEVDKLVQLIECPIFTYLRLQLLDVKNNPYLIKALYGLLMLLPQSSAFQLLSHRLQCVPNPELLQTEDSLKAAPKSQKADSPSIDYAELLQHFEKVQNKHLEVRHQRSGRGDHLDRRVVL [VAC14] | 0.0329 | -1.83 | -1.68 | -0.133 | 53.9 | 53.3
6 | MNPNCARCGKIVYPTEKVNCLDKFWHKACFHCETCKMTLNMKNYKGYEKKPYCNAHYPKQSFTMVADTPENLRLKQQSELQSQVRYKEEFEKNKGKGFSVVADTPELQRIKKTQDQISNIKYHEEFEKSRMGPSGGEGMEPERRDSQDGSSYRRPLEQQQPHHIPTSAPVYQQPQQQPVAQSYGGYKEPAAPVSIQRSAPGGGGKRYRAVYDYSAADEDEVSFQDGDTIVNVQQIDDGWMYGTVERTGDTGMLPANYVEAI [LASP1] | 0.0591 | -2.02 | -2.68 | 0.0867 | 60.5 | 58.7
7 | MNPSMKQKQEEIKENIKNSSVPRRTLKMIQPSASGSLVGRENELSAGLSKRKHRNDHLTSTTSSPGVIVPESSENKNLGGVTQESFDLMIKENPSSQYWKEVAEKRRKALYEALKENEKLHKEIEQKDNEIARLKKENKELAEVAEHVQYMAELIERLNGEPLDNFESLDNQEFDSEEETVEDSLVEDSEIGTCAEGTVSSSTDAKPCI [GMNN] | 0.46 | -7.44 | -7.77 | -0.0263 | 52.7 | 57.5
8 | MNPTLILAAFCLGIASATLTFDHSLEAQWTKWKAMHNRLYGMNEEGWRRAVWEKNMKMIELHNQEYREGKHSFTMAMNAFGDMTSEEFRQVMNGFQNRKPRKGKVFQEPLFYEAPRSVDWREKGYVTPVKNQGQCGSCWAFSATGALEGQMFRKTGRLISLSEQNLVDCSGPQGNEGCNGGLMDYAFQYVQDNGGLDSEESYPYEATEESCKYNPKYSVANDTGFVDIPKQEKALMKAVATVGPISVAIDAGHESFLFYKEGIYFEPDCSSEDMDHGVLVVGYGFESTESDNNKYWLVKNSWGEEWGMGGYVKMAKDRRNHCGIASAASYPTV [CTSL] | -0.176 | 1.47 | 1.22 | 0.0996 | 55 | 53.9
9 | MNRFRVSKFRHTEARPPRRESWISDIRAGTAPSCRNHIKSSCSLIAFNSDRPGVLGIVPLQGQGEDKRRVAHLGCHSDLVTDLDFSPFDDFLLATGSADRTVKLWRLPGPGQALPSAPGVVLGPEDLPVEVLQFHPTSDGILVSAAGTTVKVWDAAKQQPLTELAAHGDLVQSAVWSRDGALVGTACKDKQLRIFDPRTKPRASQSTQAHENSRDSRLAWMGTWEHLVSTGFNQMREREVKLWDTRFFSSALASLTLDTSLGCLVPLLDPDSGLLVLAGKGERQLYCYEVVPQQPALSPVTQCVLESVLRGAALVPRQALAVMSCEVLRVLQLSDTAIVPIGYHVPRKAVEFHEDLFPDTAGCVPATDPHSWWAGDNQQVQKVSLNPACRPHPSFTSCLVPPAEPLPDTAQPAVMETPVGDADASEGFSSPPSSLTSPSTPSSLGPSLSSTSGIGTSPSLRSLQSLLGPSSKFRHAQGTVLHRDSHITNLKGLNLTTPGESDGFCANKLRVAVPLLSSGGQVAVLELRKPGRLPDTALPTLQNGAAVTDLAWDPFDPHRLAVAGEDARIRLWRVPAEGLEEVLTTPETVLTGHTEKICSLRFHPLAANVLASSSYDLTVRIWDLQAGADRLKLQGHQDQIFSLAWSPDGQQLATVCKDGRVRVYRPRSGPEPLQEGPGPKGGRGARIVWVCDGRCLLVSGFDSQSERQLLLYEAEALAGGPLAVLGLDVAPSTLLPSYDPDTGLVLLTGKGDTRVFLYELLPESPFFLECNSFTSPDPHKGLVLLPKTECDVREVELMRCLRLRQSSLEPVAFRLPRVRKEFFQDDVFPDTAVIWEPVLSAEAWLQGANGQPWLLSLQPPDMSPVSQAPREAPARRAPSSAQYLEEKSDQQKKEELLNAMVAKLGNREDPLPQDSFEGVDEDEWD [CORO7] | -0.00965 | 0.406 | 0.778 | 0.159 | 51.9 | 51
10 | MNSPGGRGKKKGSGGASNPVPPRPPPPCLAPAPPAAGPAPPPESPHKRNLYYFSYPLFVGFALLRLVAFHLGLLFVWLCQRFSRALMAAKRSSGAAPAPASASAPAPVPGGEAERVRVFHKQAFEYISIALRIDEDEKAGQKEQAVEWYKKGIEELEKGIAVIVTGQGEQCERARRLQAKMMTNLVMAKDRLQLLEKMQPVLPFSKSQTDVYNDSTNLACRNGHLQSESGAVPKRKDPLTHTSNSLPRSKTVMKTGSAGLSGHHRAPSYSGLSMVSGVKQGSGPAPTTHKGTPKTNRTNKPSTPTTATRKKKDLKNFRNVDSNLANLIMNEIVDNGTAVKFDDIAGQDLAKQALQEIVILPSLRPELFTGLRAPARGLLLFGPPGNGKTMLAKAVAAESNATFFNISAASLTSKYVGEGEKLVRALFAVARELQPSIIFIDEVDSLLCERREGEHDASRRLKTEFLIEFDGVQSAGDDRVLVMGATNRPQELDEAVLRRFIKRVYVSLPNEETRLLLLKNLLCKQGSPLTQKELAQLARMTDGYSGSDLTALAKDAALGPIRELKPEQVKNMSASEMRNIRLSDFTESLKKIKRSVSPQTLEAYIRWNKDFGDTTV [SPAST] | 0.427 | 0.0551 | 1.16 | -0.012 | 49.3 | 48.8

— the supplement of paper PMC5998384
